Experimental findings from patent publication US20260347449 (published 2026) are described below.

Where a chain is given by its changes, count along the chain named.

B1: C3S3.2 (antibody, V domains shown)
VH: EVQLVESGGGLVQAGGSLRLSCAASGTIFSRNYMGWYRQAPGKERELVAGIGYGSSTNYADSVKGRFTISRDNSKNTLYLQMNSLRPEDTAVYYCAAVPTYRPYYFYWGQGTLVTVSS
B2: C3N10.3 (antibody, V domains shown)
VH: EVQLVESGGGLVQAGGSLRLACAASGLTFSPYAMGWFRQAPGKEREFVAGIRWISGNPYYADSVKGRFTISRDNSKNTLYLQMNSLRPEDTAVYSCAAAPLTRSYDYWGQGTLVTVSS
B3: C5S2 (antibody, V domains shown)
VH: QVQLQESGGGLVQAGGSLRLSCAASGNIFHQSDMGWYRQAPGKEREFVAAIDYGTNTYYADSVKGRFTISRDNAKNTVYLQMNSLKPEDTAVYYCAARDTSYWDHVYWGQGTQVTVSS
B4: C3S3 (antibody, V domains shown)
VH: B1 VH with E1Q, V5Q, S74A, L78V, R86K, L113Q
B5: C3N10 (antibody, V domains shown)
VH: B2 VH with E1D, S75A, L79V, R87K, L113Q
B6: C5S1 (antibody, V domains shown)
VH: QVQLQESGGGLVQAGGSLRLSCAASGYISYDDDMGWYRQAPGKEREFVAAIDVGGSTYYADSVKGRFTISRDNAKNTVYLQMNSLKPEDTAVYYCAVRDGYYWDHDYWGQGTQVTVSS
B7: C5S8 (antibody, V domains shown)
VH: QVQLQESGGGLVQAGGSLRLSCAASGNIFDEWDMGWYRQAPGKEREFVAAIDDGASTYYADSVKGRFTISRDNAKNTVYLQMNSLKPEDTAVYYCAARQTYAWDYRYWGQGTQVTVSS
B8: C5S5 (antibody, V domains shown)
VH: QVQLQESGGGLVQAGGSLRLSCAASGTISPYEGMGWYRQAPGKERELVAAIDGGGITYYADSVKGRFTISRDNAKNTVYLQMNSLKPEDTAVYYCAAGIWTLSYYDYWGQGTQVTVSS
B9: eculizumab (antibody, V domains shown)
VH: QVQLVQSGAEVKKPGASVKVSCKASGYIFSNYWIQWVRQAPGQGLEWMGEILPGSGSTEYTENFKDRVTMTRDTSTSTVYMELSSLRSEDTAVYYCARYFFGSSPNWYFDVWGQGTLVTVSS
VL: DIQMTQSPSSLSASVGDRVTITCGASENIYGALNWYQQKPGKAPKLLIYGATNLADGVPSRFSGSGSGTDFTLTISSLQPEDFATYYCQNVLNTPLTFGQGTKVEIKR
B10: C3S3.2-Fc (antibody, V domains shown)
VH: B1 VH
B11: C3N10.3-Fc (antibody, V domains shown)
VH: B2 VH
B12: C3I4 (antibody, V domains shown)
VH: DVQLVESGGGLVQPGGSLRLSCATSGFTLDYYAIGWFRQAPGKEREGVSCITGPDGSTHYADSVKGRFTISRDNAKNTVYLQMNSLKPEDTAVYYCAATAGLYGCGYGMDHWGKGTQVTVSS
B13: C3S6 (antibody, V domains shown)
VH: QVQLQESGGGLVQAGGSLRLSCAASGNIFVGHGMGWYRQAPGKEREFVAAIGYGAITNYADSVKGRFTISRDNAKNTVYLQMNSLKPEDTAVYYCAASSYYPPRYWYWGQGTLVTVSS
B14: C3S8 (antibody, V domains shown)
VH: QVQLQESGGGLVQAGGSLRLSCAASGTIFPTDRMGWYRQAPGKEREFVATIDLGGTTNYADSVKGRFTISRDNAKNTVYLQMNSLKPEDTAVYYCAAAWEGPSRYGRHRYYSHRYWGQGTQVTVSS
B15: C3I8 (designed binder)
chain: DVQLVESGGGLVQPGGSLRLSCATSGFSFGVYDMSWVRQASGKGLEWVSGIDSGSNTAYADSVKVRFTISRDNAKNTLYLQMNNLKPEDTAVYYCALGRETDYIPVTDFRTQGTQVTVSS
B16: C3I3 (antibody, V domains shown)
VH: DVQLVESGGGLVQPGGSLRLSCAASGFTLDNYAIAWFRQAPGKEREGVSCISSSRGSTAYEDSVKGRFTIARDNAKNTVYLQMNSLKPEDTAVYYCAARARGMCREFDYDYWGQGTQVTVSS
B17: C3I22 (antibody, V domains shown)
VH: DVQLVESGGGLVQPGGSLRLSCTASGFTFGVYAMSWVRQAPGKGLEWVSSIDSGVNTAYADSVKGRFTISRDNAINTVFLQMNSLKPEDTAVYHCALGRESDYEPVTGSWGQGTQVTVSS
B18: C3S5 (antibody, V domains shown)
VH: QVQLQESGGGLVQAGGSLRLSCAASGTIFDDESMGWYRQAPGKEREFVASINYGSTTYYADSVKGRFTISRDNAKNTVYLQMNSLKPEDTAVYYCAVGWSTNYDWTLSYYYWGQGTLVTVSS
B19: C3S10 (antibody, V domains shown)
VH: QVQLQESGGGLVQAGGSLRLSCAASGYISGGSIMGWYRQAPGKEREFVAGINQGSNTYYADSVKGRFTISRDNAKNTVYLQMNSLKPEDTAVYYCAVGGRSYYYHHYWGQGTQVTVSS

The first assay concerns the target T1, human C3 (human, UniProt P01024). Put plainly: BLI. On the technique in general: Biolayer interferometry detects binding as a change in optical thickness at a sensor tip.
B1 registered a Kd of 6 nM. Still for that read-out and setting: next, B2: 5 nM.

Another assay addresses T1, human C3. Put plainly: BLI. This is another data set of the same source.
Turning to B3, the binding result is listed as “no binding”.

Another assay addresses T1, human C3. Put plainly: BLI. The source holds these as a separate data set.
The molecule B1 yielded a Kd of 5.83 nM. On the same count and under the same terms, next, B4: 4.97 nM; B2: 5.32 nM. On to B5, for which the Kd is 3.64 nM.

The target of a further assay is T2, human C5 (human, UniProt P01031). Put plainly: BLI.
For the molecule B6, the Kd is 9.5 nM.

Molecule B7 showed a Kd of 7 nM. Molecule B8 showed a Kd of 13 nM. Still for that read-out and setting: with B3 the figure was 1.98 nM.

The target in a further assay is human C5 W917S (human, UniProt P01031). Put plainly: BLI.
On to B9, for which the binding result was “no binding”.

For a further assay, the target named is T2, human C5. In words: BLI. The source holds these as a separate data set.
For B3, the Kd is 6.29 nM.

In another assay the target is T2, human C5. Put plainly: BLI. The source holds these as a separate data set.
Regarding B1, the binding result is “no binding”. On the same count and under the same terms, next, B4: “no binding”; B2: “no binding”. On the same count and under the same terms, next, B5: “no binding”.

Another assay has as its target T3, cynomolgus C5 (cynomolgus).
T3 chain: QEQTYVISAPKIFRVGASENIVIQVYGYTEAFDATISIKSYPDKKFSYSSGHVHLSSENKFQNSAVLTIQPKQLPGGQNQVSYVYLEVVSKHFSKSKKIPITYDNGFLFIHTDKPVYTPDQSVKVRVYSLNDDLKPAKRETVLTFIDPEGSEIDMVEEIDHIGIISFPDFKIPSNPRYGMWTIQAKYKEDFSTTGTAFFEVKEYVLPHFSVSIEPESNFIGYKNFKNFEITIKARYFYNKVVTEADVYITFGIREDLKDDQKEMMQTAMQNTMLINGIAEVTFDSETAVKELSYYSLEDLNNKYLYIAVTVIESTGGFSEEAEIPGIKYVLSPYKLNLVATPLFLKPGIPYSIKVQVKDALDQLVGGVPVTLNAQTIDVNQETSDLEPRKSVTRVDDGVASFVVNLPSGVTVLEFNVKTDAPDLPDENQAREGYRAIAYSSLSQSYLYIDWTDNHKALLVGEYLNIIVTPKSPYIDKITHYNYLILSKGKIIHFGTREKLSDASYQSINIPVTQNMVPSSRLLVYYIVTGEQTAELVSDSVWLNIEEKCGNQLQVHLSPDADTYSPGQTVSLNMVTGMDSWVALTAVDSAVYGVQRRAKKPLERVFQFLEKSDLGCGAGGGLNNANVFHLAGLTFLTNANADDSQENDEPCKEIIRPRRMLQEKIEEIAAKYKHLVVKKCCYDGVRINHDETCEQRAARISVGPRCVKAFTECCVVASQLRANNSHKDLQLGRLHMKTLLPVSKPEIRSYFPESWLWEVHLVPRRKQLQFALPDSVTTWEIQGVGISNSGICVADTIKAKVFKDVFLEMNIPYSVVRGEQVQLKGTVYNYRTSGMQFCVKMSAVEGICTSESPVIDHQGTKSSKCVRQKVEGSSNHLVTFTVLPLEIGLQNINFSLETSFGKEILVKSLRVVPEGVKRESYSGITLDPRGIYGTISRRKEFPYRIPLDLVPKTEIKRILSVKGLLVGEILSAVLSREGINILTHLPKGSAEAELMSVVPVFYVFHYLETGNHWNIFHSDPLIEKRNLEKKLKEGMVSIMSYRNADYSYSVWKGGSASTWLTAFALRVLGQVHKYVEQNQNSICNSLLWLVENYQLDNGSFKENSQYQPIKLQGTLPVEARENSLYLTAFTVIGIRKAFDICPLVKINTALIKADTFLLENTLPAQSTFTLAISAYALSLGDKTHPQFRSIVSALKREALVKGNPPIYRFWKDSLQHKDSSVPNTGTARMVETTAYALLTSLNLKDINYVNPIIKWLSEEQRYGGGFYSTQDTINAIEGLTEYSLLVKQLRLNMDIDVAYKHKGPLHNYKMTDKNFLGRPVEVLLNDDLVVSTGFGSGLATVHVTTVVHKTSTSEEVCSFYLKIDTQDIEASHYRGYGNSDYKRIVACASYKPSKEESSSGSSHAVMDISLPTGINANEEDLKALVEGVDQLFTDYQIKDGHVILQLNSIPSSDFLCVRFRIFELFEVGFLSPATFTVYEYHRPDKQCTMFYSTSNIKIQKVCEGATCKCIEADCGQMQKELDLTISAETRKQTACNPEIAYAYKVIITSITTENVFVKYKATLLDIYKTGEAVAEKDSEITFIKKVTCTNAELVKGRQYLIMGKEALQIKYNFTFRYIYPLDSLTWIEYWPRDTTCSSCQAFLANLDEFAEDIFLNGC
In words: BLI.
As for B1, the binding result was “no binding”. Same read-out and setting: with B4 the entry was “no binding”. On the same count and under the same terms, next, B2: “no binding”. As to B5, the binding result is “no binding”. The same measure, in the same setting: next, B3: “no binding”.

In the next assay the target is T1, human C3. In words: BLI, bivalent.
The molecule B10 showed a Kd of 0.703 nM. Still for that read-out and setting: with B11 the figure was 3.25 nM.

In the next assay the target is T1, human C3. In words: BLI. This is another data set of the same source.
Consider B12, for which the Kd is 27 nM.

For the molecule B4, the Kd amounted to 23 nM.

For B13, the Kd came out at 20 nM.

In turn, B5 came in with a Kd of 7.6 nM. On the same count and under the same terms, next, B14: 14 nM; B15: 4.8 nM. On the same count and under the same terms, with B16 the figure was 17 nM; with B17, 3.9 nM.

The next assay concerns the target T1, human C3. Put plainly: ELISA. (ELISA stands for enzyme-linked immunosorbent assay.)
For the molecule B18, the binding result was “no binding”.

Take B19: the binding result is reported as “no binding”.
